Patent US20210238281A1 (INSTITUT NATIONAL DE LA SANTE ET DE LA RECHERCHE MEDICALE …, published 2021)
Changes are numbered by the printed parent chain. Blank lines part the entries; values can stand above or below the binder they belong to.

How the values were obtained:
[1] = target: T1, recombinant human MOG protein (human, UniProt Q16653 30-154, limits assumed); assay: phage-scFv ELISA on coated recombinant human MOG (0.5 µg/well), anti-M13 HRP, OD450 over BSA background
T1 construct: Bought recombinant protein; also called HMOG
T1 sequence (looked up): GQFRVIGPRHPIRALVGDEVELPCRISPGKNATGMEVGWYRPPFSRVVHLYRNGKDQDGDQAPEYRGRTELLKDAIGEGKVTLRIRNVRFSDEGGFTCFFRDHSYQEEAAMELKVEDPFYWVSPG
Description: (§1) The binding characteristics of the scFvs expressed on the surface of the phages isolated during the screening were determined using an ELISA assay using the recombinant MOG protein (R&D system). Along with the selected clones, phage-scFv-8-18C5 is expressed to serve as a positive control for ELISA. Briefly, phage-scFv were produced in the form of clones isolated on a 96-well plate in 800 μl of 2YT/ampicillin/glucose cultures infected with the helper phage M13K07 (as described previously). The phages produced overnight at 26° C. were then recovered in the supernatants after 30 minutes of centrifugation at 3000 g. These supernatants were directly diluted 1/2 in PBS/4% BSA/0.1% Tween 20 and tested on Maxisorp immunoplates previously coated with 0.5 μg of human or murine MOG or PBS (background control (bdf) in BSA)/well and blocked with 4% BSA in PBS. After incubation for 2 hours at 37° C., the wells were washed 3 times with PBS/0.1% Tween-20 and bound phages-scfv were detected with anti-M13 HRP antibody (GE Healthcare). The plate is read at 450 nm (OD) on a plate reader (TECAN). The results are expressed as a ratio: OD on target/OD bdf (OD on an uncoated plate saturated with BSA) and the ratios are compared with that obtained for the positive control.

[2] = target: T2, recombinant murine MOG protein (murine, UniProt Q61885 29-156, limits assumed); assay: phage-scFv ELISA on coated recombinant murine MOG (0.5 µg/well), anti-M13 HRP, OD450 over BSA background
T2 construct: Bought recombinant protein; also called MMOG
T2 sequence (looked up): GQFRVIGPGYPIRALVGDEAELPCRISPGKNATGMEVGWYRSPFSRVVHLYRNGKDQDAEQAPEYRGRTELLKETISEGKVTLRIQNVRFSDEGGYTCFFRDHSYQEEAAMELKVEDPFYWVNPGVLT
Description: as §1

B2: anti-MOG MO3I-56 antibody (scFv, V domains shown)
VH: QVQLVESGGGVVQPGSSLRLSCTASGFKFDDYAMHWVRQAPGKGLEWVSGISWNSGSIGYADSVKGRFTISRDNAKNSLYLQMNSLRAEDTASYYCAKSLPHYYDSPPYGMDVWGQGTLVTVSS
VL: DIQLTQSPSSLSASVGDRVTITCRASQGISSALAWYQQKPGKAPKLLIYDASSLESGVPSRFSGSGSGTDFTLTISSLQPEDFATYYCQHRGTFGGGTKVDIK
ratio OD on target/OD bdf [1]: 2.29 ratio
ratio OD on target/OD bdf [2]: 2.29 ratio

B5: anti-MOG MO3I-69 antibody (scFv, V domains shown)
VH: DQVQLVQSGAEVKPGASVKVSCKASGYTFTYYYLHWVRQAPGQGLEWMGWINPNSGATIFAQKFQGRVTLTRDTSISTAYLDLSRLRSDDTAVYYCARASMAYQYHSDVDYWGLGTLVTVSS
VL: QSVLTQPPSVSGAPGQRVTISCTGSSSNIGAGYDVHWYQQLPGTAPKLLIYGNSNRPSGVPDRFSGSKSGTSASLAITGLQAEDEADYYCQSYDSSLVVFGGGTKLTVL
ratio OD on target/OD bdf [1]: 2.26 ratio
ratio OD on target/OD bdf [2]: 2.76 ratio

B6: anti-MOG MO3J-26 antibody (scFv, V domains shown)
VH: QVQLVQSGAEVKKPGSSVKVSCKASGGTFSTYTLSWVRQAPGKGLEWMGGFDPEDGETIYAQKFQGRVTMTEDTSTDTAYLELSSLRSDDTAVYYCAADEFWGPGTLVTVSS
VL: QSVLTQPPSVSAAPGQTVTISCSGSSSNIGNNYVSWYQQLPGTAPKLLIYDNNKRPSGIPDRFSGSKSGTSATLGITGLQTGDEADYYCGTWDSSLSAVVFGGGTKLTVL
ratio OD on target/OD bdf [1]: 14.6 ratio
ratio OD on target/OD bdf [2]: 3.62 ratio

B8: anti-MOG MO3I-30 antibody (scFv, V domains shown)
VH: EVQLLESGGGLVQPGGSLRLSCVASGFTFRSYWMHWVRQDPGEGLVWVSRVSGDGSSTNYADSVKGRFVISRDNAKDTLYLQMYSLRGEDTAVYYCLRGNDGYGNFDYWGQGTTVTVSS
VL: DVVMTQSPLSLPVTLGQPASISCRPSQSLVYSDGNTYLNWFQQRPGQSPRRLIYKVSNRDYVVPDRFSGSGSGTDFTLKISRVEAEDVGVYYCMQGTHWPLTFGGGTKVEIK
ratio OD on target/OD bdf [1]: 2.86 ratio
ratio OD on target/OD bdf [2]: 2.19 ratio

B9: anti-MOG MO3I-63 antibody (scFv, V domains shown)
VH: QVQLVQSGAEVKTPGASVKISCKASGYAFTSYAMHWVRAPGQGLEWMGWINAANANTKYSQRFQGRVTITRDTSASTAYMELNSLRSEDTAVYYCASSEDISRSNYYNYYMDVWGKGTTVTVSS
VL: DIVMTQSPSSLSASVGDRVTITCRASQTITTSLAWFQHRPGKAPKLLIYSASSLQSGVPSRFSGSGSGTDFTLTISSLQPEDFATYSCQQTYSAPPTFGGGTKVEIK
ratio OD on target/OD bdf [1]: 2.66 ratio
ratio OD on target/OD bdf [2]: 5.55 ratio

B12: anti-MOG MO3I-33 antibody (scFv, V domains shown)
VH: DQVQLVQSGAEVKPGATVKISCKVSGYTFTDYYMHWVQQAPGKGLEWMGLVDPEDGETIYAEKFQGRVTITADTSTDTAYMELSSLRSEDTAVYYCATSYHGTSGFDYWGQGTLVTVSS
VL: QSVVTQPPSVSGAPGQRVTIACTGSNSDIGAGHDVHWYQQFPRTAPKLIIFGNTNRPSGVPDRFSGSKSGTSASLVITGLQADDEADYHCQSYDNNLSGPIFGGGTKLTVL
ratio OD on target/OD bdf [1]: 2.53 ratio
ratio OD on target/OD bdf [2]: 2.52 ratio

B15: anti-MOG MO3I-57 antibody (scFv, V domains shown)
VH: QVQLVQSGAEVKKPGASVKVSCKASGYTFSSYGISWVRQAPGQGLEWMGWISANTGNTDYAERLQGRVTMTTDTSTTTAYMELRSLRSDDTAVYYCARGAPNGYAVDYWGQGTLVTVSS
VL: QSVLTQPPSASGAPGQRVSISCSGSSSNIGTNHVYWYQQFTGMAPKLIIDTNNQRPPGVPARFSGSKSGTSASLAISGLRSEDESDYYCLTWDDGLYDWVFGGGTKLTVL
ratio OD on target/OD bdf [1]: 2.44 ratio
ratio OD on target/OD bdf [2]: 2.77 ratio

B17: anti-MOG MO3I-60 antibody (scFv, V domains shown)
VH: EVQLVESGGGLVKPGGSLGLSCAASGFTFTNAWGHWVRQAPGKGLEWVGRIKSKTDGGTTDYAAPVKDRFSISRDDSKNTLYLQMNSPTTEDTAVYYCATENGMDIVTTFDSWGQGTLVTVSS
VL: AIRMTQSPSSLSASVGDRVTITCRASQSIGSYLSWYRQKPGKAPKLLIYDSSTLQSGVASRFSGSGSGTDFTLTISALQPEDFATYYCHQSYRTPLSFGGGTKVEIK
ratio OD on target/OD bdf [1]: 2.09 ratio
ratio OD on target/OD bdf [2]: 2.75 ratio

The next lines start with the values.

ratio OD on target/OD bdf [1]: 16.3 ratio
ratio OD on target/OD bdf [2]: 6.86 ratio
B1: anti-MOG MO3J-52 antibody (scFv, V domains shown)
VH: QMQLVQSGAEVKKPGSSVKVSCKASGGTFSSYAISWVRQAPGQGLEWMGGIIPIFGTANYAQKFQGRVTITADESTSTAYMELSSLRSEDTAVYYCARAREGLLVNYYGMDVWGQGTLVTVSS
VL: DIQMTQSPSTLSASVGDRVTTTCRASQGISNYLAWFQQKPGKAPKSLIYAASSLQSGVPSRFSGGGSGTDFTLTINSLQPEDFATYYCLHDYNYPTFGQGTKVEIK

ratio OD on target/OD bdf [1]: 14.5 ratio
ratio OD on target/OD bdf [2]: 6.61 ratio
B3: anti-MOG MO3J-44 antibody (scFv, V domains shown)
VH: QVQLVQSGAEVRKPGASVKISCQISGYNFISYTIQWVRQAPGQRPEWMGWINSGNGNTKYSQKFQGRVTFTRDTSTSTAYMELSSLRSEDTAVYYCARSGIGPWGQGTLVTVSS
VL: EIVLTQPPDLQSVTPKKKVTITCRASQSIGNSLHWCQQKPDQSPKLLIKYASQSISGVPSRFSGSGSGTDFTLTINSLEAEDAATYYCHQSSSLPFTFGPGTKVDIK

ratio OD on target/OD bdf [1]: 21 ratio
ratio OD on target/OD bdf [2]: 6.48 ratio
B4: anti-MOG MO3J-40 antibody (scFv, V domains shown)
VH: EVQLVESGAEVKKPGESLKISCKGSGYTFTSNWIGWVRQMPGKGLEWMGIIYPGDSDTRYSPSFQGQGTISADKSISTAYLQWSSLRASDTAMYYCARASIAVRPHIDYWGQGTLVTVSS
VL: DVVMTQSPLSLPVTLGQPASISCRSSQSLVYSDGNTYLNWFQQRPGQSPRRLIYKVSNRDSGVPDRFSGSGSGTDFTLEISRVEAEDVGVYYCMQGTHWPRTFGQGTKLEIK

ratio OD on target/OD bdf [1]: 14.6 ratio
ratio OD on target/OD bdf [2]: 4.76 ratio
B7: anti-MOG MO3J-51 antibody (scFv, V domains shown)
VH: EVQLVQSGAEVKKPGASVKVSCKASGYTFTSYGISWVRQAPGQGLEWMGWISAYNGNTNYAQKLQGRVTMTTDTSTSTAYMELRSLGSDDTAVYYCARNMGCSSTSCFVSWFDPWGQGTLVTVSS
VL: B6 VL with Q16R, T17K, S35A, D51E, D61G, G69A, S94N, V99W

ratio OD on target/OD bdf [1]: 2.55 ratio
ratio OD on target/OD bdf [2]: 2.78 ratio
B10: anti-MOG MO4H-106 antibody (scFv, V domains shown)
VH: QVQLVQSGAEVKKPGASVKVSCKASGYTFTTYNIHWMRQAPGQSLEWMGWISTGNGDTEYSQKLQGSVTFTRDTSASTVYMDLNSLTPGDTAVYSCARESLFVSSWYADYWGQGTLVTVSS
VL: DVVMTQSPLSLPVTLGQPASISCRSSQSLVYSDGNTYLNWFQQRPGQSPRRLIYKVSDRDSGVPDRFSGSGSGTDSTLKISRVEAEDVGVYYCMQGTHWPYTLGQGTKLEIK

ratio OD on target/OD bdf [1]: 2.04 ratio
ratio OD on target/OD bdf [2]: 4.01 ratio
B11: anti-MOG MO4H-118 antibody (scFv, V domains shown)
VH: EVQLVQSGAEVKKPGASVKVSCKVSGYTLTELSMHWVRQAPGKGLEWMGGFDPEDGETIYAQKFQGRVTMTEDTSTDTAYMELSSLRSEDTAVYYCATIGPKVAAHTYYFDYWGQGTLVTVSS
VL: DIQLTQSPSSLSASVGDRVTITCRASQTIVTYLNWYQQKPGKAPNLLITDASSLQSGVPSRFSGTESGTDFTLTISSLQPEDFGSYYCQSYMNPITFGQGTRLEIN

ratio OD on target/OD bdf [1]: 20.8 ratio
ratio OD on target/OD bdf [2]: 8.26 ratio
B13: anti-MOG MO3J-43 antibody (scFv, V domains shown)
VH: EVQLVESGGGLVKPGGSLRLSCAASGFTFSDYYMSWIRQAPGKGLEWVSYISSSGNTIYYADSVKGRFTISRDNAKNSLYLQMNSLRAEDTAVYYCAKDSPVPTVWGQGTLVTVSS
VL: QSVVTQPPSVSGAPGQRVSISCTGGSSNIGADYDVHWYQQLPGTAPKLLIYGNNNRPSGVPDRFSGSKSGTSASLAISGLQPEDEAVYYCQSYDSGLRSSVFGGGTKLTVL

ratio OD on target/OD bdf [1]: 12.9 ratio
ratio OD on target/OD bdf [2]: 6.66 ratio
B14: anti-MOG MO3J-37 antibody (scFv, V domains shown)
VH: EVQLVESGGGLVQPGRSLRLSCAASGFTFDDYAMHWVRQAPGKGLEWVSGISWNSGSIGYADSVKGRFTISRDNAKNSLYLQMNSLRAEDTALYYCAKDMRAVAGTEGAFDIWGQGTMVTVSS
VL: QSVVTQPPSMSAAPGQKVTISCSGSSSNIGNNYVSWYQQLPGTAPKLLIYENNKRPSGISDRFSGSKSGTSATLGITGLQTGDEADYYCATGDSGMTLVFGGGTKLTVL

ratio OD on target/OD bdf [1]: 18.4 ratio
ratio OD on target/OD bdf [2]: 5.59 ratio
B16: anti-MOG MO3J-38 antibody (scFv, V domains shown)
VH: QVQLVQSGPEVRKPGASVKVSCRASGYTFTSNDINWVRQAAGQGLEYLGWLHPKSGGTGYAQKFQGRVTMTRDTSISTAYLELSNLTSDDTAVYYCARVSFDEVIDFWGQGTLVTVSS
VL: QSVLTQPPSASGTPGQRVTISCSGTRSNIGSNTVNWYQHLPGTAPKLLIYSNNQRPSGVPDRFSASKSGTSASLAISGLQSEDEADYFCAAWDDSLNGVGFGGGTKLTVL
